According to patent publication CN115057931A (GUANGZHOU YUHENG BIOTECHNOLOGY CO LTD, dated 2022):

How the values were obtained:
[1] = biological target: T1, human LAG-3, full length, on transfected cells (human, UniProt P18627 23-525); test: cell-based or functional assay
T1 sequence: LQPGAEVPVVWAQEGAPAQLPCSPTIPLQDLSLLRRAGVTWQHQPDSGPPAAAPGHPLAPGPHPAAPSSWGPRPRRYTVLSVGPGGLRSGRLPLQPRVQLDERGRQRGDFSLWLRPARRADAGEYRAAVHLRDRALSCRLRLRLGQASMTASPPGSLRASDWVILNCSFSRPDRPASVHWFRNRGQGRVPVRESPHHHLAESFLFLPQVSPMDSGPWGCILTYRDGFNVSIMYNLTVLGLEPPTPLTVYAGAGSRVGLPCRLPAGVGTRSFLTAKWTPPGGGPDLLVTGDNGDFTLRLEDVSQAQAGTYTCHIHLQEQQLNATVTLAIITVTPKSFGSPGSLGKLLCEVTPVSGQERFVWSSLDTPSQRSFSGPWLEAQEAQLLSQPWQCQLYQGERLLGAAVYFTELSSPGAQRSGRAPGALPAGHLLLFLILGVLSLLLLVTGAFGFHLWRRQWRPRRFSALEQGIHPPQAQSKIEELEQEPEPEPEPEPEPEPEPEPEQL

[2] = biological target: T2, human CD4 (human, UniProt P01730 26-390, limits assumed); test: ELISA, plate coated with 1 μg/mL human CD4
T2 construct: also called 人CD4蛋白

[3] = biological target: T3, mouse LAG-3 on Flp-In-CHO cells (mouse, UniProt Q61790 24-521); test: FACS on Flp-In-CHO cells expressing mouse LAG-3
T3 construct: whole, on cells; also called 鼠LAG-3; 细胞表面小鼠LAG-3
T3 sequence (looked up): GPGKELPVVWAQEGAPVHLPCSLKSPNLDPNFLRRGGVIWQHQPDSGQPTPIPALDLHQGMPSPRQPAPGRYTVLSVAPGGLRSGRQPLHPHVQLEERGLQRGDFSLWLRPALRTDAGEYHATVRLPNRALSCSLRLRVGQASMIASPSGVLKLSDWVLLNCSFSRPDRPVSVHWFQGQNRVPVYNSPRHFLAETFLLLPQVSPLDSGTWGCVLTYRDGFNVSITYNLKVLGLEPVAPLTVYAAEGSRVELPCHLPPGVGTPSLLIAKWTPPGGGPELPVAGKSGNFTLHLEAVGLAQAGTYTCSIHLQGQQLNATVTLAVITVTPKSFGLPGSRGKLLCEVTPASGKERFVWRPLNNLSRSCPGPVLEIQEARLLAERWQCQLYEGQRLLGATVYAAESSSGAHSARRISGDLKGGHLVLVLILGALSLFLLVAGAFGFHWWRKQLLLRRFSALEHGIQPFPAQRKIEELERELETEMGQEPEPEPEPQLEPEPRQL

[4] = biological target: T4, cynomolgus LAG-3 on 293F cells (cynomolgus monkey); test: FACS on 293F cells expressing cynomolgus LAG-3
T4 construct: whole, on cells; also called 食蟹猴LAG-3; 细胞表面食蟹猴LAG-3

Binder	EC50(nM), IL-2 luciferase reporter in Jurkat cells expressing human LAG-3 with Raji cells and SEE [1]	binding result [2]	binding result [3]	EC50 [4]
1.53.3-uAb-IgG4k (antibody, V domains shown, Fully human antibody from OMT rats; the other pair 15/16 goes with CDRs 7-12 in CLM-00002) VH: QVQLQQWGAGLLKPSETLSLTCGVYGGSFSGYYWSWIRQPPGMGLEWIGEINHRGNTNYNPSLKSRVTISEDTSKNQFSLRLSSVTAADTAVYFCTRGEDYSDYDYYGDFWGQGTLVTVSS VL: EIVLTQSPATLSLSQGERATLSCRASQSISSYLAWYQQKPGQAPRLLIYAASNRATGIPARFSGSGSGTDFTLTISSLEPEDFAIYYCQQRSNWPLTFGGGTKVEIK	1.07 nM	no binding (tested: 1μg/mL)	no binding	4.01 nM
3.40.19-uAb-IgG4L (antibody, V domains shown, Fully human antibody from OMT rats; also called 3.40.19-uAb-hIgG4L) VH: QLQLQESGPGLVKPSETLSLTCTVSGDSISSTSYYWGWIRQPPGKGLEWIGSFYYSGSTYYNPSLKSRVTISVDTSKNQFSLKLNSVTAADTAVYYCARMQLWSYDVDVWGQGTTVTVSS VL: QSALTQPASVSGSPGQSITISCTGTSSDVGGYDYVAWYQQHPGKVPKLMIYDVSERPSGVSNRFSGSKSGNTASLTISGLQAEDEADYYCSSYTSTTTLVVFGGGTKLSVL	0.21 nM	no binding (tested: 1μg/mL)		3.92 nM
